Source: patent publication US9206411B2, “Staphylococcal Phage2638A endolysin amidase domain is lytic for Staphylococcus aureus” (priority 2012, dated 2015)

What was measured:
S. aureus NRS 382 (MRSA) = assay: Plate lysis, susceptibility of strains to 2638A (Table 1); assay type: cell-based
Experimental: (§1) Purified proteins for each construct were diluted in sterile nickel column elution buffer, and 6 μL of lysostaphin (11 μg) or the constructs (0.2 nmoles or ˜11 μg for the repaired construct 2638A 1-180Mut-486) was spotted onto a freshly spread lawn of S. aureus strain NRS119 (SA LinR #12; linezolid resistant) growing cells that had air dried for 30 min on tryptic soy agar (TSA) plates. L=[…] Lysostaphin (Sigma); Spot 1=11 μg; all other constructs are 0.2 nmoles (˜11 μg for the repaired construct 2638A 1-180Mut-486) […]. The spotted plates were air dried for 10 min in a laminar flow hood and incubated overnight in a 37° C. environment. Scoring of the cleared spots occurred within 20 h of plating the cells.
(§2) The Plate Lysis assay results (FIG. 3) agree with the turbidity reduction assay. Each of the M23 peptidase dependent or SH3b-truncating constructs showing weak activity on S. aureus strain Newman strain. In addition to the Plate Lysis results in FIG. 3, we have also examined numerous strains with reduced but real lytic activity (Table 1). However, the plate lysis results with the 2638A endolysin constructs are extremely novel in appearance. Plate lysis results are routinely visualized as a discrete cleared spot on a lawn of bacteria after a single overnight of culture. […] In contrast, the 2638A endolysin is unique in that sometimes this cleared zone requires multiple days to appear. […] Thus, there is also a likelihood that the enzyme might work preferentially on late log or stationary phase cells in the plate lysis assay, as the 3 day old culture is likely not growing as quickly as the freshly-plated overnight culture.

S. aureus Tanji 3 = assay: as above; assay type: cell-based
Experimental: as §1, §2

S. aureus Tanji 47 = assay: as above; assay type: cell-based; parameters: key to Susceptibility to lysis by 2638A, day 3+: − = >100 pmol; (+) = very faint lysis zone; + = 100 pmol; ++ = 10 pmol; +++ = 1 pmol
Experimental: as §1, §2

S. aureus Tanji 21 = assay: as above; assay type: cell-based; parameters: key to Susceptibility to lysis by 2638A, day 3+: − = >100 pmol; (+) = very faint lysis zone; + = 100 pmol; ++ = 10 pmol; +++ = 1 pmol
Experimental: as §1, §2

S. aureus NRS 384 (MRSA) = assay: as above; assay type: cell-based; parameters: key to Susceptibility to lysis by 2638A, day 3+: − = >100 pmol; (+) = very faint lysis zone; + = 100 pmol; ++ = 10 pmol; +++ = 1 pmol
Experimental: as §1, §2

S. simulans = assay: as above; assay type: cell-based; parameters: key to Susceptibility to lysis by 2638A, day 3+: − = >100 pmol; (+) = very faint lysis zone; + = 100 pmol; ++ = 10 pmol; +++ = 1 pmol
Experimental: as §1, §2

S. aureus MN8 ΔsarA = assay: as above; assay type: cell-based; parameters: key to Susceptibility to lysis by 2638A, day 1: − = >100 pmol; (+) = very faint lysis zone; + = 100 pmol; ++ = 10 pmol; +++ = 1 pmol
Experimental: as §1, §2

S. aureus NRS 383 (MRSA) = assay: as above; assay type: cell-based; parameters: key to Susceptibility to lysis by 2638A, day 1: − = >100 pmol; (+) = very faint lysis zone; + = 100 pmol; ++ = 10 pmol; +++ = 1 pmol
Experimental: as §1, §2

S. aureus Tanji 29 = assay: as above; assay type: cell-based; parameters: key: − = >100 pmol; (+) = very faint lysis zone; + = 100 pmol; ++ = 10 pmol; +++ = 1 pmol
Experimental: as §1
The Plate Lysis assay results (FIG. 3) agree with the turbidity reduction assay. Each of the M23 peptidase dependent or SH3b-truncating constructs showing weak activity on S. aureus strain Newman strain. In addition to the Plate Lysis results in FIG. 3, we have also examined numerous strains with reduced but real lytic activity (Table 1). However, the plate lysis results with the 2638A endolysin constructs are extremely novel in appearance. Plate lysis results are routinely visualized as a discrete cleared spot on a lawn of bacteria after a single overnight of culture. […]

MRSA strain NRS382 = assay: Control of systemic MRSA infection in a murine model; assay type: in vivo, Staphylococcus aureus

B1: 2638A Endolysin: 486 amino acid staphylococcal phage 2638A endolysin (SEQ ID NO:4), C-terminally 6×His-tagged; M23 peptidase, amidase, SH3b domains (protein)
chain: MLTAIDYLTKKGWKISSDPRTYDGYPKNYGYRNYHENGINYDEFCGGYHRAFDVYSNETNDVPAVTSGTVIEANDYGNFGGTFVIRDANDNDWIYGHLQRGSMRFVVGDKVNQGDIIGLQGNSNYYDNPMSVHLHLQLRPKDAKKDEKSQVCSGLAMEKYDITNLNAKQDKSKNGSVKELKHIYSNHIKGNKITAPKPSIQGVVIHNDYGSMTPSQYLPWLYARENNGTHVNGWASVYANRNEVLWYHPTDYVEWHCGNQWANANLIGFEVCESYPGRISDKLFLENEEATLKVAADVMKSYGLPVNRNTVRLHNEFFGTSCPHRSWDLHVGKGEPYTTTNINKMKDYFIKRIKHYYDGGKLEVSKAATIKQSDVKQEVKKQEAKQIVKATDWKQNKDGIWYKAEHASFTVTAPEGIITRYKGPWTGHPQAGVLQKGQTIKYDEVQKFDGHVWVSWETFEGETVYMPVRTWDAKTGKVGKLWGEIKLEHHHHHH
modifications: C-terminal His6 tag; Mutated Phage 2638a
notes: M23 peptidase, amidase, SH3b domains
− (− = >100 pmol): Susceptibility to lysis by 2638A, day 1 (S. aureus NRS 382 (MRSA); day 1) | Susceptibility to lysis by 2638A, day 3+ (S. aureus NRS 382 (MRSA); day 3+) | Susceptibility to lysis by 2638A, day 1 (S. aureus Tanji 3; day 1) | Susceptibility to lysis by 2638A, day 3+ (S. aureus Tanji 3; day 3+) | Susceptibility to lysis by 2638A, day 1 (S. aureus Tanji 47; day 1) | Susceptibility to lysis by 2638A, day 1 (S. aureus Tanji 21; day 1) | Susceptibility to lysis by 2638A, day 1 (S. aureus NRS 384 (MRSA); day 1) | Susceptibility to lysis by 2638A, day 1 (S. simulans; day 1)
(+): Susceptibility to lysis by 2638A, day 3+ (S. aureus Tanji 47; day 3+) | Susceptibility to lysis by 2638A, day 3+ (S. aureus Tanji 21; day 3+) | Susceptibility to lysis by 2638A, day 3+ (S. aureus NRS 384 (MRSA); day 3+) | Susceptibility to lysis by 2638A, day 3+ (S. simulans; day 3+) | Susceptibility to lysis by 2638A, day 1 (S. aureus MN8 ΔsarA; day 1) | Susceptibility to lysis by 2638A, day 1 (S. aureus NRS 383 (MRSA); day 1) | Susceptibility to lysis by 2638A, day 1 (S. aureus Tanji 29)
0.8 ± 1.9 × 10^1 CFU/ml: Mean NRS382 Titer in the Blood (MRSA strain NRS382; Recovered 48 hr post infection from surviving mice, same doses)
+++ (+++ = 1 pmol): Susceptibility to lysis by 2638A, day 3+ (S. aureus MN8 ΔsarA; day 3+)
++ (++ = 10 pmol): Susceptibility to lysis by 2638A, day 3+ (S. aureus NRS 383 (MRSA); day 3+)
0: septicemia score at the end of the experiment (MRSA strain NRS382; 48 hours, score 0-5 per Table 4)
100%: % Survival (MRSA strain NRS382; 0 hours, Balb/c mice, I.P. 4×10^7 CFU, treated 30 min post infection: 2638A 200 μg/mouse I.P., Vancomycin 375 μg/mouse s.c., Oxacillin 1250 μg/mouse s.c.) | % Survival (MRSA strain NRS382; 4 hours, same model and doses) | % Survival (MRSA strain NRS382; 8 hours, same model and doses) | % Survival (MRSA strain NRS382; 12 hours, same model and doses) | % Survival (MRSA strain NRS382; 16 hours, same model and doses) | % Survival (MRSA strain NRS382; 20 hours, same model and doses) | % Survival (MRSA strain NRS382; 24 hours, same model and doses) | % Survival (MRSA strain NRS382; 28 hours, same model and doses) | % Survival (MRSA strain NRS382; 32 hours, same model and doses) | % Survival (MRSA strain NRS382; 36 hours, same model and doses) | % Survival (MRSA strain NRS382; 40 hours, same model and doses) | % Survival (MRSA strain NRS382; 44 hours, same model and doses) | % Survival (MRSA strain NRS382; 48 hours (end of the experiment), same model and doses)
